Data: the RNAGym collection of RNA variant scans (doi:10.1093/nar/gkz1192)

B1: CPEB3 Ribozyme (parent)
chain: UAACAGGGGGCCACAGCAGAAGCGUUCACGUCGCAGCCCCUGUCAGAUUCUGGUGAAUCUGCGAAUUCUGCUGUAUAUCUC

Variants of: B1
Assay: self-cleavage, relative activity (ratio to wild type); higher = more cleavage; in vitro, sequencing
In short: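 After error-prone PCR and barcoding, CPEB3 ribozyme mutant libraries were transcribed with T7 RNA polymerase at 37°C for 5 hours, then given 15 min with DNase I before an EDTA stop, and they cleaved during both steps. Reverse transcription with template switching preceded Illumina sequencing. Relative activity divides a variant's cleaved/total read fraction by the unmutated ribozyme's. At least 5 reads were required per variant, and three batches were averaged.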

Variant	self-cleavage
UAACAGGGGGCCACAGCAGAGGCGUUCACGUCGCAGCCCCUGUCAGAUUCUGGUGAAUCUGCGAAUUCUGCUAUAUAUCUC [A21G G73A]	1.21
UAACAGGGGGCCACAGCAGAGGCGAUCACGUCGCAGCCCCUGUCAGAUUCUGGUGAAUCUGCGAAUUCUGCUGUAUAUCUC [A21G U25A]	0.24
UAACAGGGGGCCACAGCAGAGGCGCUCACGUCGCAGCCCCUGUCAGAUUCUGGUGAAUCUGCGAAUUCUGCUGUAUAUCUC [A21G U25C]	0.29
UAACAGGGGGCCACAGCAGAGGCGGUCACGUCGCAGCCCCUGUCAGAUUCUGGUGAAUCUGCGAAUUCUGCUGUAUAUCUC [A21G U25G]	0.34
UAACAGGGGGCCACAGCAGAGGCGUACACGUCGCAGCCCCUGUCAGAUUCUGGUGAAUCUGCGAAUUCUGCUGUAUAUCUC [A21G U26A]	0.52
UAACAGGGGGCCACAGCAGAGGCGUCCACGUCGCAGCCCCUGUCAGAUUCUGGUGAAUCUGCGAAUUCUGCUGUAUAUCUC [A21G U26C]	0.29
UAACAGGGGGCCACAGCAGAGGCGUGCACGUCGCAGCCCCUGUCAGAUUCUGGUGAAUCUGCGAAUUCUGCUGUAUAUCUC [A21G U26G]	0.25
UAACAGGGGGCCACAGCAGAGGCGUUCACGACGCAGCCCCUGUCAGAUUCUGGUGAAUCUGCGAAUUCUGCUGUAUAUCUC [A21G U31A]	0.33
UAACAGGGGGCCACAGCAGAGGCGUUCACGCCGCAGCCCCUGUCAGAUUCUGGUGAAUCUGCGAAUUCUGCUGUAUAUCUC [A21G U31C]	0.24
UAACAGGGGGCCACAGCAGAGGCGUUCACGGCGCAGCCCCUGUCAGAUUCUGGUGAAUCUGCGAAUUCUGCUGUAUAUCUC [A21G U31G]	0.41
UAACAGGGGGCCACAGCAGAGGCGUUCACGUCGCAGCCCCAGUCAGAUUCUGGUGAAUCUGCGAAUUCUGCUGUAUAUCUC [A21G U41A]	0.3
UAACAGGGGGCCACAGCAGAGGCGUUCACGUCGCAGCCCCCGUCAGAUUCUGGUGAAUCUGCGAAUUCUGCUGUAUAUCUC [A21G U41C]	0.66
UAACAGGGGGCCACAGCAGAGGCGUUCACGUCGCAGCCCCGGUCAGAUUCUGGUGAAUCUGCGAAUUCUGCUGUAUAUCUC [A21G U41G]	0.29
UAACAGGGGGCCACAGCAGAGGCGUUCACGUCGCAGCCCCUGACAGAUUCUGGUGAAUCUGCGAAUUCUGCUGUAUAUCUC [A21G U43A]	0.75
UAACAGGGGGCCACAGCAGAGGCGUUCACGUCGCAGCCCCUGCCAGAUUCUGGUGAAUCUGCGAAUUCUGCUGUAUAUCUC [A21G U43C]	0.33
UAACAGGGGGCCACAGCAGAGGCGUUCACGUCGCAGCCCCUGGCAGAUUCUGGUGAAUCUGCGAAUUCUGCUGUAUAUCUC [A21G U43G]	0.14
UAACAGGGGGCCACAGCAGAGGCGUUCACGUCGCAGCCCCUGUCAGAAUCUGGUGAAUCUGCGAAUUCUGCUGUAUAUCUC [A21G U48A]	0.35

Variant	self-cleavage
UAACAGGGGGCCACAGCAGAGGCGUUCACGUCGCAGCCCCUGUCAGACUCUGGUGAAUCUGCGAAUUCUGCUGUAUAUCUC [A21G U48C]	0.3
UAACAGGGGGCCACAGCAGAGGCGUUCACGUCGCAGCCCCUGUCAGAGUCUGGUGAAUCUGCGAAUUCUGCUGUAUAUCUC [A21G U48G]	0.34
UAACAGGGGGCCACAGCAGAGGCGUUCACGUCGCAGCCCCUGUCAGAUACUGGUGAAUCUGCGAAUUCUGCUGUAUAUCUC [A21G U49A]	0.48
UAACAGGGGGCCACAGCAGAGGCGUUCACGUCGCAGCCCCUGUCAGAUCCUGGUGAAUCUGCGAAUUCUGCUGUAUAUCUC [A21G U49C]	0.27
UAACAGGGGGCCACAGCAGAGGCGUUCACGUCGCAGCCCCUGUCAGAUGCUGGUGAAUCUGCGAAUUCUGCUGUAUAUCUC [A21G U49G]	0.23
UAACAGGGGGCCACAGCAGAGGCGUUCACGUCGCAGCCCCUGUCAGAUUCAGGUGAAUCUGCGAAUUCUGCUGUAUAUCUC [A21G U51A]	0.64
UAACAGGGGGCCACAGCAGAGGCGUUCACGUCGCAGCCCCUGUCAGAUUCCGGUGAAUCUGCGAAUUCUGCUGUAUAUCUC [A21G U51C]	0.6
UAACAGGGGGCCACAGCAGAGGCGUUCACGUCGCAGCCCCUGUCAGAUUCGGGUGAAUCUGCGAAUUCUGCUGUAUAUCUC [A21G U51G]	0.72
UAACAGGGGGCCACAGCAGAGGCGUUCACGUCGCAGCCCCUGUCAGAUUCUGGAGAAUCUGCGAAUUCUGCUGUAUAUCUC [A21G U54A]	0.71
UAACAGGGGGCCACAGCAGAGGCGUUCACGUCGCAGCCCCUGUCAGAUUCUGGCGAAUCUGCGAAUUCUGCUGUAUAUCUC [A21G U54C]	0.53
UAACAGGGGGCCACAGCAGAGGCGUUCACGUCGCAGCCCCUGUCAGAUUCUGGGGAAUCUGCGAAUUCUGCUGUAUAUCUC [A21G U54G]	0.4
UAACAGGGGGCCACAGCAGAGGCGUUCACGUCGCAGCCCCUGUCAGAUUCUGGUGAAACUGCGAAUUCUGCUGUAUAUCUC [A21G U58A]	0.29
UAACAGGGGGCCACAGCAGAGGCGUUCACGUCGCAGCCCCUGUCAGAUUCUGGUGAACCUGCGAAUUCUGCUGUAUAUCUC [A21G U58C]	0.31
UAACAGGGGGCCACAGCAGAGGCGUUCACGUCGCAGCCCCUGUCAGAUUCUGGUGAAGCUGCGAAUUCUGCUGUAUAUCUC [A21G U58G]	0.39
UAACAGGGGGCCACAGCAGAGGCGUUCACGUCGCAGCCCCUGUCAGAUUCUGGUGAAUCAGCGAAUUCUGCUGUAUAUCUC [A21G U60A]	0.32
UAACAGGGGGCCACAGCAGAGGCGUUCACGUCGCAGCCCCUGUCAGAUUCUGGUGAAUCCGCGAAUUCUGCUGUAUAUCUC [A21G U60C]	0.27
UAACAGGGGGCCACAGCAGAGGCGUUCACGUCGCAGCCCCUGUCAGAUUCUGGUGAAUCGGCGAAUUCUGCUGUAUAUCUC [A21G U60G]	0.29
